Experiments:
human Mo-DCs = experiment: Quantitative RT-PCR of CCR7, IDO, BIC-1, SOD2 in Mo-DCs; assay type: cell-based; parameters: key to IDO / BIC-1: (−) negligible; (+) low; (++) moderate; (+++) high
Method: Mo-DCs (10^6/condition) were harvested at day 7 and the mRNA was extracted using the RNeasy RNA Isolation kit (Qiagen) and incubated with RNase-free DNase I (Ambion, Austin, Tex.) according to the manufacturer's protocol. A two-step real-time RT-PCR technique was used to determine the relative mRNA levels of human CCR7, BIC-1, IDO and SOD2. Reverse transcription reactions were performed with 500 ng of total RNA using the Omniscript RT kit (Qiagen). Quantification of mRNA levels was performed by real-time polymerase chain reaction (PCR) with the use of the LightCycler technology (Roche Molecular Biochemicals, Indianapolis, Ind.). The following primers were used: CCR7-f (5′-TGGGCATCTGGATACTAGC-3′) (SEQ ID NO:6), CCR7-r (5′-AAGAAAGGGTTGACGCAGC-3′) (SEQ ID NO:7); IDO-f (5′-[…]-3′) (SEQ ID NO:8); IDO-r (5′-[…]-3′) (SEQ ID NO:9); BIC-1-f (5′-[…]-3′) (SEQ ID NO:10), BIC-1-r (5′-[…]-3′) (SEQ ID NO:11); SOD2-f (5′-GACAAACCTCAGCCCTAAC-3′) (SEQ ID NO:12), SOD2-r (5′-[…]-3′) (SEQ ID NO:13), yielding products of 435, 227, 296 bp, and 248 bp, respectively. These gene-specific primer pairs were designed using Oligo 4.0 and Primer 3 software packages (MBI, Cascade, Colo.) and selected to prevent primer-dimer formation.
All samples were normalized with the use of the following primer set for the constitutively expressed human cyclophilin gene: CypA-f (5′-[…]-3′) (SEQ ID NO:14) and CypA-r (5′-CACCACATGCTTGCCATCC-3′) (SEQ ID NO:15) (Pluvinet R. et al., 2004, Blood. 104: 3642-3646). All primers were purchased from Bonsai Technologies (Copenhagen, Denmark).
PCR amplifications were performed in a 20 μl volume containing 2 μl ready-to-use reaction mix, 10×DNA Master SYBR Green I (Roche Molecular Biochemicals); MgCl2 (3 mM for CCR7; 4 mM for BIC-1 and SOD2, and 5 mM for IDO); 0.15 μM of each primer; 5% dimethyl sulfoxide (DMSO); and 75 ng cDNA as template. The amplification program used an initial denaturation at 95° C. for 10 min, followed by 45 cycles: 95° C. for 1 sec; 58° C. (CCR7 and SOD2)/60° C. (BIC-1 and IDO) for 5 sec; 72° C. for 10 sec.

LPS-matured human Mo-DCs = experiment: DC cytokine secretion (Th1/Th2 Flow cytomix Multiplex); assay type: cell-based; parameters: key to IL-12 / IL-6 / IL-8 / IL-10 / TNF-α / IFN-γ: (−) negligible; (+) low; (++) moderate; (+++) high
Method: Concentrations of IL-12p70, TNF-α, IFN-γ, IL-10, IL-6 and IL-8, were determined from DC supernatants treated with the C4BP isoforms α7β1 and α7β0 using the Th1/Th2 Flow cytomix Multiplex kit (Bender-Medsystems, Viena, Austria), according to the manufacturer's instructions.

allogeneic CD3+ T cells = experiment: Mixed leukocyte reaction ([3H]-thymidine incorporation); assay type: cell-based, human; parameters: key to Alloproliferation (T CD3^+): (−) negligible; (+) low; (++) moderate; (+++) high
Method: CD3^+ T cells (10^5/well) and C4BP-treated (α7β1 and α7β0), or Factor H-treated, and LPS-activated Mo-DCs were seeded in a 96-well round-bottom plate at various DC:T cell ratios (1:40, 1:80 and 1:160) and cultured in X-VIVO 15 medium (Biowittaker, Walkersville, Md.) supplemented with 100 μg/ml of streptomycin, 100 IU/ml of penicillin and 2 mM L-glutamine (all from Invitrogen) plus 2% Human AB Serum. Allospecific proliferation was measured after 5 days of incubation. At day 4, the […] [^3H]-thymidine (1 μCi/well, Perkin Elmer, Boston, Mass.) was added, followed by incubation for another 16 h. Labeled cells were then harvested onto glass-fiber filters with a Filtermate Harvester (Packard, Meriden, Conn.), and the T cell proliferation rate was determined by the amount of [^3H]-thymidine incorporation, which was measured in a TopCount NXT counter (Packard). Results are reported as the mean cpm±SD of thymidine incorporation in quadruplicate culture wells.

NSG immunodeficient mice = experiment: Human xeno-graft-versus-host disease (xeno-GvHD) model; assay type: in vivo; settings: co-transfer or late infusion of treated monocyte-derived DCs (5×10^5/mouse) with human PBMCs; versus PBMCs alone
Description: We assessed the in vivo tolerogenic or regulatory capacity of C4BP(β^−)-treated or Factor H-treated monocyte-derived DCs in a human xeno-graft-versus-host disease (xeno-GvHD) model (King et al. (2009) Clin. Exp. Immunol. 157: 104-118). Intravenous injection of human peripheral blood mononuclear cells (PBMCs; 10×10^6/mouse) induced xeno-GvHD in NSG immunodeficient mice (The Jackson Laboratory) (8-12 weeks of age) (median survival time 30-40 days).

[1] = transcriptional profile, treated and LPS-induced DCs
[2] = cytokine, treated and LPS-induced DCs
[3] = pre-treated at 2 μg/ml, matured with LPS

Molecule | CCR7 transcript level (human Mo-DCs; RT-qPCR, pretreated, LPS-matured Mo-DCs) | release of cytokines (IL-12p70, IL-10, IL-8, IL-6, TNF-α, IFN-γ) (LPS-matured human Mo-DCs; pre-treated Mo-DCs matured with LPS, C4BP 2 μg/ml, Factor H 5 μg/ml) | allogeneic T cell proliferation (allogeneic CD3+ T cells; Mo-DCs pre-incubated and matured with LPS, DC:T 1:40, 1:80, 1:160, 5 days) | survival time (NSG immunodeficient mice) | BIC-1 (human Mo-DCs; [1]) | IDO (human Mo-DCs; [1]) | IFN-γ (LPS-matured human Mo-DCs; [2]) | IL-6 (LPS-matured human Mo-DCs; [2]) | IL-8 (LPS-matured human Mo-DCs; [2]) | IL-10 (LPS-matured human Mo-DCs; [2]) | IL-12 (LPS-matured human Mo-DCs; [2]) | TNF-α (LPS-matured human Mo-DCs; [2]) | production of IL-10 (LPS-matured human Mo-DCs; [3]) | release of IFN-γ (LPS-matured human Mo-DCs; [3]) | release of IL-6 (LPS-matured human Mo-DCs; [3]) | release of IL-8 (LPS-matured human Mo-DCs; [3]) | release of IL-12p70 (LPS-matured human Mo-DCs; [3]) | release of TNF-α (LPS-matured human Mo-DCs; [3]) | Alloproliferation (T CD3^+) (allogeneic CD3+ T cells; functional assay, treated and LPS-induced DCs)
C4BP α7β1: major C4BP isoform, 7 identical α-chains and 1 β-chain, purified from pooled human plasma (protein, UniProt P04003 49-597; P20851 18-252, looked up) C4b-binding protein alpha …: NCGPPPTLSFAAPMDITLTETRFKTGTTLKYTCLPGYVRSHSTQTLTCNSDGEWVYNTFCIYKRCRHPGELRNGQVEIKTDLSFGSQIEFSCSEGFFLIGSTTSRCEVQDRGVGWSHPLPQCEIVKCKPPPDIRNGRHSGEENFYAYGFSVTYSCDPRFSLLGHASISCTVENETIGVWRPSPPTCEKITCRKPDVSHGEMVSGFGPIYNYKDTIVFKCQKGFVLRGSSVIHCDADSKWNPSPPACEPNSCINLPDIPHASWETYPRPTKEDVYVVGTVLRYRCHPGYKPTTDEPTTVICQKNLRWTPYQGCEALCCPEPKLNNGEITQHRKSRPANHCVYFYGDEISFSCHETSRFSAICQGDGTWSPRTPSCGDICNFPPKIAHGHYKQSSSYSFFKEEIIYECDKGYILVGQAKLSCSYSHWSAPAPQCKALCRKPELVNGRLSVDKDQYVEPENVTIQCDSGYGVVGPQSITCSGNRTWYPEVPKCEWETPEGCEQVLTGKRLMQCLPNPEDVKMALEVYKLSLEIEQLELQRDSARQSTLDKEL C4b-binding protein beta chain: SDAEHCPELPPVDNSIFVAKEVEGQILGTYVCIKGYHLVGKKTLFCNASKEWDNTTTECRLGHCPDPVLVNGEFSSSGPVNVSDKITFMCNDHYILKGSNRSQCLEDHTWAPPFPICKSRDCDPPGNPVHGYFEGNNFTLGSTISYYCEDRYYLVGVQEQQCVDGEWSSALPVCKLIQEAPKPECEKALLAFQESKNLCEAMENFMQQLKESGMTMEELKYSLELKKAELKAKLL | but not with C4BP α7β1, significantly down-regulated | the same cytokine levels than untreated Mo-DCs | maximal allogeneic T cell proliferation | no significant protection |  |  |  |  |  |  |  |  |  |  |  |  |  |  | 
C4BP (β^−): C4BP isoforms lacking beta chain: C4BP (α7β0) or C4BP (α6β0) (protein, UniProt P04003 49-597, looked up) C4b-binding protein alpha …: NCGPPPTLSFAAPMDITLTETRFKTGTTLKYTCLPGYVRSHSTQTLTCNSDGEWVYNTFCIYKRCRHPGELRNGQVEIKTDLSFGSQIEFSCSEGFFLIGSTTSRCEVQDRGVGWSHPLPQCEIVKCKPPPDIRNGRHSGEENFYAYGFSVTYSCDPRFSLLGHASISCTVENETIGVWRPSPPTCEKITCRKPDVSHGEMVSGFGPIYNYKDTIVFKCQKGFVLRGSSVIHCDADSKWNPSPPACEPNSCINLPDIPHASWETYPRPTKEDVYVVGTVLRYRCHPGYKPTTDEPTTVICQKNLRWTPYQGCEALCCPEPKLNNGEITQHRKSRPANHCVYFYGDEISFSCHETSRFSAICQGDGTWSPRTPSCGDICNFPPKIAHGHYKQSSSYSFFKEEIIYECDKGYILVGQAKLSCSYSHWSAPAPQCKALCRKPELVNGRLSVDKDQYVEPENVTIQCDSGYGVVGPQSITCSGNRTWYPEVPKCEWETPEGCEQVLTGKRLMQCLPNPEDVKMALEVYKLSLEIEQLELQRDSARQSTLDKEL |  |  |  | significantly prolonged survival time | + | − | − | + | ++ | +++ | − | + | increased the production | prevented the release | reduced the release | reduced the release | prevented the release | prevented the release | +

Source: patent publication US10106589B2, “Compositions and methods for immunomodulation” (FUNDACIO INSTITUT D'INVESTIGACIO BIOMEDICA DE BELLVITGE …, priority 2011, dated 2018)
